Data on 21 sequences can be found in the supplement of paper PMC9170038.

The data set relates to MS2 coat protein. Put plainly: apparent KD of MS2 coat protein; designed switch direction (-1 OFF switch, 1 ON switch): -1; higher = weaker reporter binding. The method in brief: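 Designed RNA switches sharing common flanks were transcribed on Illumina chips by stalled E. coli RNA polymerase. They were titrated with SNAP-549-labelled MS2 coat protein, from 0.7 or 1.5 nM doubling to 3 µM, in Tris-HCl pH 7.5 buffer with KCl, MgCl2, BSA, DTT, tRNA and Tween-20. Titrations ran without input, with 200 uM small-molecule ligand, or with an oligonucleotide input. The apparent KD of each design is the median over its clusters, after curve-fitting of normalised cluster fluorescence.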

[1] abbreviates: input ligand: microRNA oligo, concentration not stated.
Setting [2] is: Eterna round: R95, input ligand: FMN 200 uM.
[3] abbreviates: Eterna round: R95, input ligand: microRNA oligo, concentration not stated.
Setting [4] is: Eterna round: R95, input ligand: none.

“ACAUGAGGAUCACCCAUGUCUGGCUGGUCCGCUCCGGCUGUUGAGGAUAUAGUUCGGUGUUCGCGCUAGAAGGUGAGGGCUGGC [Aenatbe mod 36] (Eterna round: R96, puzzle: Exclusion NG 3)”: the “apparent KD of MS2 coat protein” value came to 27.7 nM (input ligand: FMN 200 uM), 24.4 nM under setting [1] and 38.8 nM (input ligand: none).
As to “ACAUGAGGAUCACCCAUGUCUGGCUGGUCUGUUCCGGCUGUUGAGGAUAUAGUCCGGUGUUCGCGCUAGAAGGUGAGGGCUGGA [Aenatbe mod 43] (Eterna round: R96, puzzle: Exclusion NG 3)”, the “apparent KD of MS2 coat protein” value by setting is: (input ligand: FMN 200 uM) 54.5 nM; under setting [1], 32.9 nM; (input ligand: none) 57 nM.
Consider “ACAUGAGGAUCACCCAUGUGAAAACAAUGGCUGACUUUGAGAUAGGAUAUAGGUGCAUAUCAAACCUAGAAGGGUCAUUACUGG [Deportation 91 - Jieux - Exclusion NG 3] (Eterna round: R96, puzzle: Exclusion NG 3)”, for which the “apparent KD of MS2 coat protein” value by setting is: (input ligand: FMN 200 uM) 46.6 nM; under setting [1], 35.3 nM; (input ligand: none) 46.5 nM.
With “ACAUGAGGAUCACCCAUGUGAACAUGAUGGCUGAUGUAGAGCUAGGAUAUGAGUGAAUAUCUAUCUCAGAAGGAGCUUGACUGG [Deportation 47 - Jieux - Exclusion NG 3] (Eterna round: R96, puzzle: Exclusion NG 3)”, the “apparent KD of MS2 coat protein” value was 34.1 nM (input ligand: FMN 200 uM), 14.1 nM under setting [1] and 23.2 nM (input ligand: none).
Regarding “ACAUGAGGAUCACCCAUGUGGGUUCUCCAGCAUAAUAAGAGGUAGGAUAUGCAGUCGCCGAAGGAGCAGAAGGACCGCGUUUAU [Eternabot solution 50] (Eterna round: R96, puzzle: Exclusion NG 3)”, the “apparent KD of MS2 coat protein” value runs as follows: (input ligand: FMN 200 uM) 67.1 nM; under setting [1], 29.7 nM; (input ligand: none) 43.5 nM.
On to “ACAUGAGGAUCACCCAUGUUUGGCUGGUUCUCUCCGGCUGUCGAGGAUAUAGUCCGGUAUCCGCGCUAGAAGGUGAGGGCUGGC [Aenatbe mod 6] (Eterna round: R96, puzzle: Exclusion NG 3)”, for which the “apparent KD of MS2 coat protein” value by setting is: (input ligand: FMN 200 uM) 17 nM; under setting [1], 12.3 nM; (input ligand: none) 16.1 nM.
For the sequence “ACAUGCUAGUAGGAUAUCGUACGCCGAAUAGUAUGAGAAGGAUUGACAUGAGGAUCACCCAUGUGAUGCCUGAA [Quveedes] (Eterna round: R97, puzzle: Exclusion 6)”, the “apparent KD of MS2 coat protein” value turned out to be 22 nM (input ligand: FMN 200 uM) and 18.7 nM (input ligand: none).
For “ACAUGUAAUGCAGGAUAUUUGACACAUGAGGAUCACCCAUGUGACCAGAGGAAUUGCUAUGAGUCGAAGAAGGGUAUGUACAUG [Ex NG2 #55] (Eterna round: R96, puzzle: Exclusion NG 2)”, the “apparent KD of MS2 coat protein” value was found to be 56.2 nM (input ligand: FMN 200 uM), 44.7 nM under setting [1] and 42.9 nM (input ligand: none).
The like results for “ACAUGUCAUCGAGGAUAUUGCACACAUGAGGAUCACCCAUGUAUUCGGUUGCUCUCGCGUGAGUUCGAGAAGGCGAUGUACAUU [Ex NG2 #84] (Eterna round: R96, puzzle: Exclusion NG 2)” were, in that order, 276 nM, 36.6 nM and 48.9 nM.
The like results for “ACAUGUCAUUGAGGAUAUCGCACACAUGAGGAUCACCCAUGUAAACAGAUGCUCAUAAGUGGGUUCGAGAAGGCGAUGUACAUU [Ex NG2 #100] (Eterna round: R96, puzzle: Exclusion NG 2)” were, in that order, 318 nM, 119 nM and 117 nM.
On to “ACAUGUCAUUGAGGAUAUUGCAAACAUGAGGAUCACCCAUGUAUACGGAUGCUCUUACGUGAGUUCGAGAAGGCGAUGUACAUU [Ex NG2 #91] (Eterna round: R96, puzzle: Exclusion NG 2)”, for which the “apparent KD of MS2 coat protein” value came to 99.7 nM (input ligand: FMN 200 uM), 39.7 nM under setting [1] and 46.2 nM (input ligand: none).
As to “ACAUGUGUUGUAGGAUAUAGGAUACAUGAGGAUCACCCAUGUGGAUUCAUGUCAAAGGAAACGUCCUAGAAGGACGACAACAUG [Ex NG2 #23] (Eterna round: R96, puzzle: Exclusion NG 2)”, the “apparent KD of MS2 coat protein” value (input ligand: FMN 200 uM) amounted to 176 nM, the “apparent KD of MS2 coat protein” value under setting [1] came out at 53.2 nM and the “apparent KD of MS2 coat protein” value (input ligand: none) amounted to 84.3 nM.
As for “ACAUGUUAUGUAGGAUAUUAGACACAUGAGGAUCACCCAUGUAACCGGAGGCUUUACUAUGAGUUUGAGAAGGGUAUGAACAUG [Ex NG2 #66] (Eterna round: R96, puzzle: Exclusion NG 2)”, the “apparent KD of MS2 coat protein” value was found to be 78.1 nM (input ligand: FMN 200 uM), 45.4 nM under setting [1] and 92.1 nM (input ligand: none).
On the same counts, the results for “ACAUGUUGCGCAGGAUAUGGGACACAUGAGGAUCACCCAUGUGGUUUCAUGUCUAACCAAGCGUCCCAGAAGGGCGUGAACAUG [Ex NG2 #30] (Eterna round: R96, puzzle: Exclusion NG 2)” are 41.8 nM, 20.8 nM and 19.9 nM.
On to “ACAUUACAUGAGGAUCACCCAUGUGAGGAUAUGGAGCGAUAGUGUCCUGUCGCGUACACCAGAAGGCGCGGGUG [1st #49] (Eterna round: R97, puzzle: Exclusion 1)”, for which the “apparent KD of MS2 coat protein” value came to 242 nM (input ligand: FMN 200 uM) and 271 nM (input ligand: none).
For the sequence “ACCCGCACAAGCACCAGAGACAUGAGGAUCACCCAUGUAUAGUCGCACUAGGGUCUCUCUAGUCUAGCCGUUCGUCA [Eternabot (Original) Solution 44] (Eterna round: R97, puzzle: Sensor, turn-off variant 1)”, the “apparent KD of MS2 coat protein” value by setting is: (input ligand: FMN 200 uM) 90.4 nM; (input ligand: none) 213 nM.
Take “ACCUAACAUGAGGAUCACCCAUGUCAGGAUAUCCGGCCUAUGGAAACAUAGGAAGAACGGAGAAGGGACAGAGG [ChP 04-04-2015 #9] (puzzle: Exclusion 1)”: the “apparent KD of MS2 coat protein” value under setting [2] was 69.5 nM, the “apparent KD of MS2 coat protein” value under setting [3] is 35 nM and the “apparent KD of MS2 coat protein” value under setting [4] worked out at 43.1 nM.
For the sequence “ACCUAACAUGAGGAUCACCCAUGUGAGGAUAUGUACAUCGGCUCGCGAAAGUGACCGAACAGAAGGUACAUGGU [EX1 A.26] (Eterna round: R97, puzzle: Exclusion 1)”, the “apparent KD of MS2 coat protein” value (input ligand: FMN 200 uM) worked out at 17.8 nM and the “apparent KD of MS2 coat protein” value (input ligand: none) was 19.1 nM.
For the sequence “ACCUAUGAGGAGGAUAUACGGUGCGAAAGGAUGGUAGAAGGCUUCACAUGAGGAUCACCCAUGUCUAUAAGCGA [EX6 #87] (Eterna round: R97, puzzle: Exclusion 6)”, the “apparent KD of MS2 coat protein” value runs as follows: (input ligand: FMN 200 uM) 27.8 nM; (input ligand: none) 18.3 nM.
As to “ACCUCACAUGAGGAUCACCCAUGUCAGGAUAUACAAGAAAAUAACCGGAAAGAACGGAGUAGAAGGGACAUAAG [Zatigeri] (puzzle: Exclusion 1)”, the “apparent KD of MS2 coat protein” value is, setting by setting: under setting [2], 28.1 nM; under setting [3], 15.3 nM; under setting [4], 15.8 nM.
For the sequence “ACCUUACUGGUCAGGAUAUACAGUCUCGGGUGGGUGUAGAAGGGACAUGAGGAUCACCCAUGUAGGUUGCAGCA [alecazam56] (Eterna round: R97, puzzle: Brourd's mod of Exclusion 4)”, the “apparent KD of MS2 coat protein” value (input ligand: FMN 200 uM) amounted to 100 nM and the “apparent KD of MS2 coat protein” value (input ligand: none) came out at 156 nM.
